B1: LINE1-full (parent)
chain: UACGUAGGUGGUUUUCCCCUGAUAGUGCUAAGGGGGCCUGGAAGUUUGGACUGGGCAGAGCUCAACACAGCGUGGCAAAGUGGCUGUGGCUAGACUGCCUCUCUGGAUUCCUCGUCACUCAGCAGGGCAUCUCUGAGAGAAAUGCC

This series covers variants of B1. The experiment in a line: self-cleavage, relative activity (ratio to wild type); higher = more cleavage; in vitro, sequencing; the parent is a self-cleaving ribozyme.
Take A129G A141G: the self-cleavage amounted to 1.6.

Consider U119C C145U, for which the self-cleavage was determined as 1.25.

In the case of G126U U143C, the self-cleavage turned out to be 1.33.

A117G U134A: the self-cleavage turned out to be 1.37.

As to G125C A138G, the self-cleavage is 1.9.

Consider A129C A140C, for which the self-cleavage was found to be 1.29.

In the case of A129C A140G, the self-cleavage is 1.67.

As to A129C A140U, the self-cleavage was found to be 1.75.

As to A121C G127A, the self-cleavage worked out at 1.8.

Take G126A G127U: the self-cleavage turned out to be 1.44.

On to G127U U130C, for which the self-cleavage came to 1.77.

A129G U132C: the self-cleavage turned out to be 1.58.

In the case of G127A U143C, the self-cleavage is 2.07.

Regarding A117U A142G, the self-cleavage was 1.43.

As to U119A G125U, the self-cleavage was found to be 1.07.

Regarding A121G G144A, the self-cleavage was determined as 1.91.

Turning to G127A A138G, the self-cleavage was 1.36.

For A129G U134A, the self-cleavage is 0.89.

As to A129G U134C, the self-cleavage stood at 1.43.

Consider A129G G144U, for which the self-cleavage was 1.67.

As to A129G G144A, the self-cleavage was determined as 1.66.

With G122A A138G, the self-cleavage turned out to be 0.78.

Regarding C123U A136G, the self-cleavage was determined as 1.49.

Take G126U A129U: the self-cleavage turned out to be 0.81.

Take G126U A129G: the self-cleavage came out at 1.61.

Regarding A124G U132C, the self-cleavage was 0.82.

Take A124G U132A: the self-cleavage came out at 0.87.

On to A117U G122U, for which the self-cleavage came to 1.72.

For the variant G125A, the self-cleavage came to 1.19.

As to G125C, the self-cleavage was found to be 1.59.

As to G125U, the self-cleavage was 1.23.

Turning to A117U A124U, the self-cleavage came to 1.26.

A117U A124C: the self-cleavage is 1.77.

Take A129U G144A: the self-cleavage amounted to 1.51.

Regarding G126A A136U, the self-cleavage amounted to 1.41.

Take G122A U134C: the self-cleavage was 1.43.

As to G126C A140G, the self-cleavage is 2.25.

Take G122A U143C: the self-cleavage came to 1.11.

Consider A129U A138U, for which the self-cleavage was determined as 1.47.

For A129U A138G, the self-cleavage was 0.93.

For A129U A140G, the self-cleavage was found to be 1.53.

For G126A A141G, the self-cleavage amounted to 1.34.

For the variant G126A A141U, the self-cleavage amounted to 0.67.

In the case of A121G G126A, the self-cleavage was 1.24.

Take A129U A142G: the self-cleavage is 1.43.

Consider A124G A138G, for which the self-cleavage amounted to 1.36.

For C123U G125C, the self-cleavage was determined as 1.1.

On to A121G A140G, for which the self-cleavage was 1.84.

Regarding A121G G125A, the self-cleavage turned out to be 1.29.

For the variant A124U U134C, the self-cleavage worked out at 1.51.

As to A121U U132A, the self-cleavage stood at 1.36.

C123U U130C: the self-cleavage worked out at 1.74.

For C123U U130A, the self-cleavage was 1.72.

With G127U A129G, the self-cleavage is 0.75.

Turning to A121G A141G, the self-cleavage was 1.65.

Take C120G A129G: the self-cleavage was 1.23.

Regarding U119G U143A, the self-cleavage was found to be 0.95.

On to A129C U143C, for which the self-cleavage is 1.74.

Turning to A124G C128A, the self-cleavage was determined as 0.46.

With A124G C128U, the self-cleavage was 0.53.

For A121G C146U, the self-cleavage was 1.39.

Take A129C U130A: the self-cleavage turned out to be 1.47.

Consider U119C A141G, for which the self-cleavage amounted to 1.87.

Turning to A117U A129G, the self-cleavage was 1.69.

For the variant U119C A124G, the self-cleavage stood at 1.62.

For U119C A124U, the self-cleavage is 1.58.

In the case of A124G G127A, the self-cleavage came to 1.15.

Take A129U G139A: the self-cleavage was 1.53.

A121U A141G: the self-cleavage came to 1.24.

Regarding U130C A141C, the self-cleavage was 2.91.

Consider C123A A141G, for which the self-cleavage was found to be 1.35.

Regarding G126A C133A, the self-cleavage stood at 1.7.

Take G125C U134C: the self-cleavage is 1.58.

With G126A U143C, the self-cleavage was determined as 0.77.

In the case of G126A U143A, the self-cleavage was 1.49.

For the variant A121G C145A, the self-cleavage was 1.6.

As for U119C C128U, the self-cleavage stood at 1.13.

As for A117G C118U, the self-cleavage came to 1.44.

On to C120U A124G, for which the self-cleavage stood at 1.26.

With U119C A142U, the self-cleavage was 1.95.

As to U119C A142G, the self-cleavage amounted to 1.33.

Take C120U A129G: the self-cleavage was 1.84.

Take A121U U143G: the self-cleavage stood at 2.

With U119G A138G, the self-cleavage is 2.33.

Turning to U119C A140G, the self-cleavage came out at 1.88.

Regarding G125A A140G, the self-cleavage came to 1.32.

As for U119G U134C, the self-cleavage is 1.76.

Consider G126A A138U, for which the self-cleavage is 1.33.

As for C128U U130C, the self-cleavage is 1.35.

As for U132A U143C, the self-cleavage was determined as 1.82.

As for U132A U143A, the self-cleavage was 2.

For U132A A141G, the self-cleavage is 1.58.

As for C120U G127A, the self-cleavage worked out at 1.48.

As for G127A G139C, the self-cleavage was 1.41.

For the variant A117G A124G, the self-cleavage worked out at 0.69.

As for G125A U132C, the self-cleavage came out at 1.55.

Regarding C123A, the self-cleavage was 1.19.

As to C123U, the self-cleavage came to 1.16.

As for C123G, the self-cleavage was 1.36.

Consider C118U A138U, for which the self-cleavage came out at 0.2.

Turning to C118U A138G, the self-cleavage was 1.18.

On to C123G A124G, for which the self-cleavage worked out at 0.74.

Turning to A117G G127A, the self-cleavage was 2.

With U119A A142G, the self-cleavage amounted to 1.48.

Regarding A117G A140G, the self-cleavage was 1.48.

Take A117U: the self-cleavage amounted to 1.46.

In the case of C128U A140U, the self-cleavage amounted to 1.36.

Consider C128U A140G, for which the self-cleavage was 0.89.

With A117G G126A, the self-cleavage is 1.96.

As for A117U C131A, the self-cleavage was determined as 1.27.

Regarding C131G, the self-cleavage turned out to be 1.54.

Regarding C131A, the self-cleavage is 1.48.

On to C131U, for which the self-cleavage is 1.41.

Regarding U119C U130C, the self-cleavage worked out at 1.72.

On to U119C U130A, for which the self-cleavage was found to be 1.93.

For A121U G125A, the self-cleavage turned out to be 1.23.

With A121U G125C, the self-cleavage was 1.28.

Take A124U A129U: the self-cleavage is 0.9.

Turning to A121C A129U, the self-cleavage was 1.9.

On to A121C A129G, for which the self-cleavage came out at 1.23.

A121G A136G: the self-cleavage came to 1.65.

With G125U U132C, the self-cleavage is 1.47.

Take A121G U143A: the self-cleavage came out at 0.91.

Regarding A121G U143G, the self-cleavage came out at 0.5.

Turning to A117U G126C, the self-cleavage turned out to be 1.47.

For U130C A142C, the self-cleavage was 1.76.

As to A117G G137A, the self-cleavage came to 1.66.

For the variant U119A U130C, the self-cleavage turned out to be 1.85.

For A121G A124G, the self-cleavage turned out to be 0.97.

Regarding A117U A136U, the self-cleavage was 1.67.

As for A117U A136G, the self-cleavage came to 1.51.

Turning to G126C G137A, the self-cleavage turned out to be 1.45.

Consider U130C G144A, for which the self-cleavage was 1.57.

For C123U U132A, the self-cleavage came out at 1.13.

Consider U130C A136U, for which the self-cleavage is 1.63.

Turning to U130C C133A, the self-cleavage worked out at 1.61.

Turning to A124C U130C, the self-cleavage was 1.84.

For G127C C145U, the self-cleavage turned out to be 1.01.

On to U119A U134A, for which the self-cleavage was determined as 1.42.

A117U G135U: the self-cleavage turned out to be 1.68.

With A117U G135A, the self-cleavage worked out at 1.79.

U130C U143C: the self-cleavage came out at 1.53.

Turning to U130C U143A, the self-cleavage worked out at 1.51.

Consider A121G G127A, for which the self-cleavage worked out at 1.74.

With A129G A140G, the self-cleavage worked out at 1.47.

In the case of U119G A141G, the self-cleavage turned out to be 1.57.

Regarding A129G U130C, the self-cleavage was 1.69.

A129G U130A: the self-cleavage was determined as 1.19.

Turning to G125U U134A, the self-cleavage was determined as 1.87.

With G125U U134G, the self-cleavage amounted to 1.26.

For A117U U119C, the self-cleavage is 1.73.

On to A121G A129U, for which the self-cleavage turned out to be 1.59.

On to A121G A129G, for which the self-cleavage was 1.58.

Turning to C118U U143A, the self-cleavage came to 1.31.

For the variant C128U A141G, the self-cleavage turned out to be 1.37.

As for U119A A136U, the self-cleavage was determined as 1.3.

As for C131A A140G, the self-cleavage turned out to be 1.94.

In the case of C123U A138G, the self-cleavage stood at 1.91.

As for G127C A138G, the self-cleavage was 1.31.

For U119C G144A, the self-cleavage came to 1.26.

Turning to G122A A142G, the self-cleavage is 0.42.

Take G122A A140G: the self-cleavage was 0.53.

With G122A A140U, the self-cleavage turned out to be 1.47.

Consider C123G A140U, for which the self-cleavage was determined as 1.27.

For A121U U134C, the self-cleavage worked out at 1.35.

Consider C118U U134C, for which the self-cleavage is 1.13.

On to U119C A136U, for which the self-cleavage was found to be 1.87.
